{"source": "paper PMC9108619", "binders": {"B1": {"name": "FLAG-TurboID-UPF3B, Q9BZI7-2 K52D; RR56EE (protein)", "chain": "MKEEKEHRPKEKRVTLLTPAGATGSGGGTSGDSSKGEDKQDRNKEKKEALSDVVIEELPPTLTKEQLQEHLQPMPEHDYFEFFSNDTSLYPHMYARAYINFKNQEDIILFRDRFDGYVFLDNKGQEYPAIVEFAPFQKAAKKKTKKRDTKVGTIDDDPEYRKFLESYATDNEKMTSTPETLLEEIEAKNRELIAKKTTPLLSFLKNKQRMREEKREERRRREIERKRQREEERRKWKEEEKRKRKDIEKLKKIDRIPERDKLKDEPKIKLLKKPEKGDEKELDKREKAKKLDKENLSDERASGQSCTLPKRSDSELKDEKPKRPEDESGRDYREREREYERDQERILRERERLKRQEEERRRQKERYEKEKTFKRKEEEMKKEKDTLRDKGKKAESTESIGSSEKTEKKEEVVKRDRIRNKDRPAMQLYQPGARSRNRLCPPDDSTKSGDSAAERKQESGISHRKEGGEE"}}, "target": "T1, UPF2 (endogenous), Q9HAU5", "T1 chain": "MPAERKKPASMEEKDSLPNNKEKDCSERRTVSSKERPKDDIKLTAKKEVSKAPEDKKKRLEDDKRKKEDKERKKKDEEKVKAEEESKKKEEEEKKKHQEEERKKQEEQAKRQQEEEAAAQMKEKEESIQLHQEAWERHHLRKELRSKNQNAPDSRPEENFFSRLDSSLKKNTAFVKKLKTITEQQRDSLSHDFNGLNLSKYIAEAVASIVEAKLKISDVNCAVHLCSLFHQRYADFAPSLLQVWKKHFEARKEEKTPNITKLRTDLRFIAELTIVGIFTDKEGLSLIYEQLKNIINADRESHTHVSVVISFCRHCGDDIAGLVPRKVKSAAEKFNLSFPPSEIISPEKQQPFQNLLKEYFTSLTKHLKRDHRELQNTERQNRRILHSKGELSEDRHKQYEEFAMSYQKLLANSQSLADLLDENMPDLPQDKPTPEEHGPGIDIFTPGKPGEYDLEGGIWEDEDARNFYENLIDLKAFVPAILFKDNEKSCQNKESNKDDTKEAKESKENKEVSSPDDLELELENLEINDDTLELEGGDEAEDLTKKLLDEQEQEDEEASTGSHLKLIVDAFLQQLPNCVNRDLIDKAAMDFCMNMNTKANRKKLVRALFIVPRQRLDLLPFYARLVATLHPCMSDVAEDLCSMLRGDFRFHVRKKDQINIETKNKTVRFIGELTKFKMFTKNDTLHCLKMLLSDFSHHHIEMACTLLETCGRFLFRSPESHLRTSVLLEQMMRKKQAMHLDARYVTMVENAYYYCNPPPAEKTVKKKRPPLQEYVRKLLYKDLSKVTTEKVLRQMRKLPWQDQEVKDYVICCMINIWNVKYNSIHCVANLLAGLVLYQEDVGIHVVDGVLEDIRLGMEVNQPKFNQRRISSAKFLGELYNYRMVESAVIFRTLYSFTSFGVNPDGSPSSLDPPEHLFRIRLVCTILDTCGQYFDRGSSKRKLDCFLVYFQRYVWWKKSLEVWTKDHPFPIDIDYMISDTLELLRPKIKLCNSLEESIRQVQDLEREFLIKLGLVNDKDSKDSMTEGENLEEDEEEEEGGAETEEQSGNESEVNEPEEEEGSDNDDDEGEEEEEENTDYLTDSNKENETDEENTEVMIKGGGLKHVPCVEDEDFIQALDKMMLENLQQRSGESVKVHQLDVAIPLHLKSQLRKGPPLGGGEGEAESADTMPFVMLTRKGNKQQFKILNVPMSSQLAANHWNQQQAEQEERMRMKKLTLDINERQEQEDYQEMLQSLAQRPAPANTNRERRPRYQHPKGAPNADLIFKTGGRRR", "experiment": "TurboID proximity labelling, streptavidin enrichment, mass spectrometry", "conditions": "chain shown with the change; UPF3B KO + UPF3A KD cells; n = 3 biologically independent samples; read off a plot"}
{"binder": "B1", "values": [{"measurement": "other: log2 fold change", "value": -1.8}]}
